Results from patent US20220218614A1, “IONIZABLE CATIONIC LIPIDS AND LIPID NANOPARTICLES, AND METHODS OF SYNTHESIS AND USE THEREOF” (Tidal Therapeutics, Inc., priority 2020, published 2022).

Experiments:
Type in all cases: cell-based
[1] = system: human whole blood; test: Whole blood transfection of immune cells with Fab targeted mRNA LNPs; details: Lipid 8 LNP, 2.5 μg/mL mCherry mRNA, 24 hours
Description: Venous blood from healthy volunteers was anti-coagulated in heparin tubes (BD Biosciences #367526) and seeded at 50 μL in a 96-well round-bottom plate. Transfection of whole blood was carried out simply by adding nanoparticles containing 5 μg/mL mRNA to the cells and co-culturing at 37° C. until the time of analysis. To assess transfection efficiency, cells were analyzed 24-hours post-transfection by flow cytometry. LNPs used (with and without post-inserted targets) at 2.5 μg/mL:RDM073.23. Cells obtained from human blood were analyzed by flow cytometry. Prior to the analysis of whole blood transfection efficiency, red blood cells were lysed twice with VersaLyse Lysing Solution (Beckman Coulter #A09777) for 10 minutes at room temperature. […]
Compensation for each fluorochrome was performed in the multicolor flow panels using positive and negative compensation beads. Fluorescence minus one (FMO) samples and unstained controls were included to determine the level of background fluorescence and to set the gates for the negative cell populations versus the positive cell populations.
All samples were acquired on a BD LSRFortessa X-20 (BD Biosciences) running […] software (Becton Dickinson). All data collected were analyzed using FlowJo 10.7.1 software and GraphPad Prism version 9.0. […]

[2] = system: primary human T cells; test: LNP transfection of co-cultured human T cells and NK cells: T cells; details: Lipid 8 LNP, 2.5 ug/mL mRNA, 24 hours
Description: Primary human T cells were purified using magnetic-based CD3 negative selection. 20 million purified T cells were activated using anti-CD3/anti-CD28 coated beads for 48 hours in media containing 100 IU/mL IL-2. Following activation, activation beads were removed, and T cells were expanded for an additional 48 hours in media containing 100 IU/mL IL-2. After the expansion period, T cells were concentrated to 1 million cells/mL in preparation for co-transfection with primary human NK cells.
LNPs were prepared using the mixing process described in Example 6, the buffer exchange process described in Example 25. […]
(§1) 24 hours after LNP transfection, cell culture media was aspirated from T cell and NK cell co-cultures after centrifugation. […] Following acquisition by flow cytometry, T cells and NK cells were analyzed independently using FlowJo (flow cytometry analysis software). In either CD3+ cells (T cells) or CD56+ cells (NK cells), the frequency of GFP positive events relative to GFP negative events was calculated (FIG. 64A). Additionally, the overall fluorescence of GFP was quantified by assessment of mean fluorescence intensity (MFI, FIG. 64B). […] Together, these metrics enabled quantification of LNP transfection efficiency of all targeted LNPs tested in primary human T cell and NK cell co-cultures.

[3] = system: primary human NK cells; test: LNP transfection of co-cultured human T cells and NK cells: NK cells; details: Lipid 8 LNP, 2.5 ug/mL mRNA, 24 hours
Description: CD3-depleted PBMCs were purified using magnetic-based CD3 positive selection and retaining of the negative fraction. 20 million CD3 depleted PBMCs were added to 1 well of a 6 well GREX plate in media containing 10 ng/mL IL-15 for 7 days. On day 7, each well was split in 2 and cells were cultured further in media containing 10 ng/mL IL-15 for an additional 7 days. On day 14, NK cells were concentrated to 1 million cells/mL in preparation for co-transfection with primary human T cells.
LNPs were prepared using the mixing process described in Example 6, the buffer exchange process described in Example 25. The LNPs were formulated using eGFP encoding mRNA (TriLink Biotechnologies, California, US), Lipid 8 as the ionizable lipid, and labeled with 0.01 mol % DiIC18(5)-DS (Invitrogen, Massachusetts, US). Fab-lipid conjugates generated from methods described in Example 4 while generation of Nb-conjugated differed in using 1:1:4 Nb:DSPE-SKPEG-maileimide:DSPE-2KPEG-OCH3 and a 50 kD UF membrane (Millipore Corp, Billerica, Mass. USA) for separation of Nb-conjugate from free Nb. Using methods similar to Example 12, conjugated Fabs and conjugated Nb were post-inserted at various densities (Table 41) into LNPs containing Lipid 8 and GFP mRNA with DiI dye. […]. […]
as §1

B1: mutOKT8: non-functional mutated OKT8 Fab, SEQ ID NO: 22 and 23 (antibody)
heavy: QVQLVQSGAEDKKPGASVKVSCKASGFNIKDTYIHWVRQAPGQGLEWMGRIDPANDNTLYASKFQGRVTITADTSSNTAYMELSSLRSEDTAVYYCGRGAGAYVFDHWGQGTTVTVSSASTKGPSVFPLAPSSKSTSGGTAALGCLVKDYFPEPVTVSWNSGALTSGVHTFPAVLQSSGLYSLSSVVTVPSSSLGTQTYICNVNHKPSNTKVDKKVEPKSSDKTHTC
light: DIVMTQSPSSLSASVGDRVTITCRTSRSISAALAWYQEKPGKAPKLLIYSGSTLQSGVPSRFSGSGSGTDFTLTISSLQPEDFATYYCQQHNENPLTFGQGTKVEIKRTVAAPSVFIFPPSDEQLKSGTASVVCLLNNFYPREAKVQWKVDNALQSGNSQESVTEQDSKDSTYSLSSTLTLSKADYEKHKVYACEVTHQGLSSPVTKSFNRGES
[1]
  % mCherry+ cells (transfection) in whole blood, in words: did not exhibit transfection of any of the immune cell types
[2]
  transfection of T cells in T/NK co-culture (% GFP, GFP MFI, DiI), in words: high % DiI and % GFP
[3]
  transfection of NK cells in T/NK co-culture (% GFP, GFP MFI, DiI), in words: high % DiI and % GFP
